Results published in CN108178799A (SHENZHEN INNOVA NANOBODI CO LTD, dated 2018).

Target: T1, CA125抗原 (purified from ascites of ovarian cancer patients) (human (ascites of ovarian cancer …, UniProt Q8WXI7 1-14451))
T1 construct: Natural shed antigen, heterogeneous fragments; also called CA125糖类抗原
Assay: SPR, Biacore T100, 1:1 binding fit

| Kd | Binder |
| --- | --- |
| 0.285 nM | 纳米抗体VHH-CA125-4H10 (VHH, Alpaca VHH expressed from pMES4 in E. coli BL21(DE3) periplasm; not shown: residues and tag from the pMES4 vector (protein purified on Ni-NTA / IMAC)) VHH: ESGGGLVQPGGSLRLSCAASEFTLEHYAIGWFRQAPGKEREGVGCISSSQENTYVEDSAKGRFTISRDNVKNTVYLQMNSLKPEDTAVYYCAARRFGLCVISPGYFEVWGQGT |
| 0.718 nM | 纳米抗体VHH-CA125-2H7 (VHH, Alpaca VHH expressed from pMES4 in E. coli BL21(DE3) periplasm; not shown: residues and tag from the pMES4 vector (protein purified on Ni-NTA / IMAC)) VHH: ESGGGLVQAGGSLRLSCERSDAPHSPYTMGWFRQAPGKDREFVATITWSGGTTLYADSVKGRFTISRGIAKNTAYLQMNTLKPEDTAVYYCAVGLGGGAYREDHQYDYWGQGT |
| 0.635 nM | 纳米抗体VHH-CA125-4C1 (VHH, Alpaca VHH expressed from pMES4 in E. coli BL21(DE3) periplasm; not shown: residues and tag from the pMES4 vector (protein purified on Ni-NTA / IMAC)) VHH: ESGGGLVQAGGSLRLSCAASGNTFNINAMGWYRQAPGKQRELVATITSGGSTNYADSVKGRFTISRDNAKNTVFLQMNSLKPEDTAVYYCNAVQTRLPNSPDRYEYDYWGQGT |
